Source: US20260250410A1, “ANTIBODY AND USE THEREOF” (SICHUAN HUIYU PHARMACEUTICAL CO., LTD., priority 2022, published 2026)
Each block holds one molecule with its values, some of them ahead of it.

Key:
Assay type in all cases: cell-based, human
PC3 cells [1] = assay: Flow cytometry binding of murine monoclonal antibody to tumor cells; details: cells with high expression of CDCP1
Protocol: (§1) Flow cytometry was used to detect the binding capacity of antibody to tumor cells. […] 2.0×10^4 tumor cells were added per well, respectively, and 50 μL (PBS+2% FBS) were added, and after blocking at room temperature with an Fe blocker (Human TruStain FcX™, Biolegend, 422302) for 10 mins, an anti-CDCP1 murine monoclonal antibody at a final concentration of 200 nM was added. The obtained mixture was subjected to a 3-fold serial dilution across 8 concentration points, and incubated at 4° C. for 30 mins, and then incubated with a secondary antibody (PE anti-human IgG Fc Antibody, Biolegend, 410708), detection was performed using a flow cytometer.

MDA-MB-231 cells [2] = assay: as above; details: cells with high expression of CDCP1
Protocol: as §1

MDA-MB-231 cells [3] = assay: Endocytosis capacity of single B cell antibodies; details: MDA-MB-231, 2 h at 37° C., antibody 1.5 μg/mL
Protocol: The endocytosis capacity of the antibody was detected for 0.5 to 2 hours. MDA-MB-231 cells were subjected to digestion with 5 mM EDTA, and plated at 2×10^4 cells/well after cell counting. After adding an Fc blocker (Human TruStain FcX™, Biolegend, 422302) and blocking at room temperature for 10 mins, a test antibody (1.5 μg/mL) was added, and the mixture was incubated at 4° C. for 30 mins, centrifuged, and washed twice with PBS+2% FBS, then the cells were divided into four equal portions (labeled as 0 h, 0.5 h, 1 h, 2 h), cells labeled as 0.5 h, 1 h, 2 h time points were added to 200 μL of cell culture medium, and cultured at 37° C. for 0.5 h, 1 h, 2 h, respectively. Cells at 0 h point were centrifuged, a secondary antibody (PE anti-human IgG Fc Antibody, Biolegend, 410708) was added, and the mixture was incubated at 4° C. for 30 mins, centrifuged, and washed twice with PBS+2% FBS, and detection was performed using a flow cytometer. After incubation of cells labeled as 0.5 h, 1 h, and 2 h points at 37° C. was completed, a secondary antibody was added (in the same steps as those at 0 h point), Geo-MFI of the signal under the same voltage was collected as detection signal at 0 h, and antibody internalization rate was calculated according to the following equation: Internalization (%)=(Geo-MFI (0 h)-Geo-MFI (2 h))/Geo-MFI (0 h)×100%.

PC3 cells [4] = assay: Endocytosis capacity of murine monoclonal antibody (flow cytometry internalization); details: antibody 1.5 μg/mL
Procedure, shortened: (§2)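 MDA-MB-231 and PC3 cells (EDTA-detached, Fc-blocked) bound with 1.5 μg/mL test antibody at 4° C for 30 min, washed, then held at 37° C for 0.5, 1 or 2 h. Surface antibody detected with PE anti-human IgG Fc by flow cytometry; internalization (%) = (Geo-MFI 0 h − Geo-MFI at time point)/Geo-MFI 0 h × 100%.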

MDA-MB-231 cells [5] = assay: as above; details: antibody 1.5 μg/mL
Procedure, shortened: as §2

MDA-MB-231 cells [6] = assay: Transwell tumor cell migration experiment; details: MDA-MB-231, antibody 10 μg/ml
Protocol: In order to determine the effect of antibodies on tumor cell metastasis, the migration ability of tumor cells was examined in this study according to a transwell experiment. The specific cell migration experiment involved culturing and collecting MDA-MB-231 cells, washing them once with PBS, adjusting the density to 8×10^5 cells/mL, adding the antibody to be tested to the cells such that the working concentration thereof was 10 μg/ml, co-incubating for 30 mins, adding a cell suspension to the upper chamber of the transwell chamber, placing the transwell chamber in the incubator for 12-48 h, then removing the chamber (transwell chamber, to examine cell migration ability), immobilizing the cells, staining the cells with crystal violet for 15 mins, washing, air drying, mounting, and taking photos of 4-5 fields of view under a microscope, and counting the number or area of the stained cells using imageJ analysis software, the number or area was used as the basis for determining tumor cell migration.

MDA-MB-231 cells [7] = assay: Effect of antibody on tumor cell proliferation (CellTiter-Glo); details: MDA-MB-231, 96 h
Protocol: (§3) 3000 cells (breast cancer MDA-MB-231, prostate cancer PC-3 cells)/well were plated onto 96-well plates overnight, an antibody at a final concentration of 500 nM to 0.00128 nM (100 nM to 0.000256 nM, 100, 20, 4, 0.8, 0.16, 0.032, 0.0064, 0.00128, 0.000256 nM, respectively) was added; after a 5-fold dilution across 9 concentration points and culturing in a CO2 incubator at 37° C. for 96 h, half of the medium (100 μL) was discarded, and 100 μL of CellTiter-Glo Luminescent Cell Viability assay reagent (Promega, cat #G7570) was added to detect signal values on a BMG microplate reader. The inhibition of antibody on tumor cell growth was calculated by graphpad fitting based on the signal value and antibody concentration.

PC-3 cells = assay: as above; details: PC-3, 96 h
Protocol: as §3

- EC50 (PC3 cells [1]): 910 pM
- EC50 (MDA-MB-231 cells [2]): 930 pM
B1: SB8: anti-CDCP1 antibody by single B cell technique; VH SEQ ID NO: 278, VL SEQ ID NO: 328 (antibody, V domains shown)
VH: QVTLKESGPGILKPSQTLSLTCSFSGFSLSTSGVGVGWIRQPSGKGLEWLAHIWWDDEKYYNPSLKSHFTISKDTSRNQVFLKITSVDTADTATYYCVKEGDGMDYWGQGTSVTVSS
VL: QAVVTQESALTTSPGETVTLTCRSSTGAVATSNYANWVQEKPDHLFTGLIGGTNNRVPGVPARFSGSLIGDKAALTITGAQTEDEAIYFCALWYSNHWVFGGGTKLTVL
modifications: SB8 heavy chain variable region; SB8 light chain variable region

B2: SB1: anti-CDCP1 antibody by single B cell technique; VH SEQ ID NO: 271, VL SEQ ID NO: 321 (antibody, V domains shown)
VH: QVQLQQSGPDLVRPGESVKISCKGSGYTFTDHAIHWVRQSHAKSLEWIGVISFSYDNTKYNQNFKGKATMTVDKSSNTAYMELARLTSEDSAIYYCARDCYGSNRGYFDYWGQGTTLTVSS
VL: DIRMTQSPSSMYASLGERVTITCKASQDINRFLSWFLQRPGKAPKTLIYRANNLVEGVPSRFSGSGSGQDYSLIISNLEYEDMGIYYCLQYDEFPRTFGGGTKLEIK
modifications: SB1 heavy chain variable region; SB1 light chain variable region
- Internalization MDA-MB-231 (%) (MDA-MB-231 cells [3]): 34.65%

B3: SB7: anti-CDCP1 antibody by single B cell technique; VH SEQ ID NO: 277, VL SEQ ID NO: 327 (antibody, V domains shown)
VH: QVQLQQSGPELVSPGESVKISCKGSGYTFTDYAVHWVKQSHSKSLEWIGVKSVYYGITKYSQNFKDKATMTVDKSSSTAYMELARLTSEDSAIYYCARDSYGSSRGYFDYWGQGTTLTVSS
VL: DIKMTQSPSSIYVSPGERVTITCKASQDINSFLSWFQQKPGKSPKTLIYRANRLVDGVPSRFSGSGSGQDYSLTISSLEYEDMGIYYCLQYDEFPRTFGGGTKLEIK
modifications: SB7 heavy chain variable region; SB7 light chain variable region
- Internalization MDA-MB-231 (%) (MDA-MB-231 cells [3]): 31.67%

B4: SB6: anti-CDCP1 antibody by single B cell technique; VH SEQ ID NO: 276, VL SEQ ID NO: 326 (antibody, V domains shown)
VH: QGQMQQSGAELVKPGASVKLSCKTSGFTFNSSYITWLKQKPGQSLEWIAWIFAGTGGTYYNEKFTDKAQLTVDTTSSTAYMQFSSLTTEDSAIYYCARHGLGYDYWGQGTTLTVSS
VL: SIVMTQTPKFLLVSAGDRVTITCKASQSVNTDVAWYQQKSGQSPKLLIYSASNRYTGVPDRFTGSGYGTDFTFTISTVQAEDLAVYFCQQDHSSPPWTFGGGTKLEIK
modifications: SB6 heavy chain variable region; SB6 light chain variable region
- Internalization MDA-MB-231 (%) (MDA-MB-231 cells [3]): 63.21%

B5: SB5: anti-CDCP1 antibody by single B cell technique; VH SEQ ID NO: 275, VL SEQ ID NO: 325 (antibody, V domains shown)
VH: QVQLRESGPGLVAPSQSLSITCTVSGFSLTDFGVNWVRQPPGKGLEWLGIIWANGRIEYNSALKSRLSISKDNSRSQVFLKLNSLQTDDTARYYCARDHDYDVEAMDYWGQGTSVTVSA
VL: QIVLTQSPAIKSASPGEKVTMTCSASSSVIYMHWYQQKSGSSPKRWIYDTSKLASGVPVRFSGSGSGTSYSLTISTMEAEDAATYYCQQWSSYPPTFGGGTKVEIK
modifications: SB5 heavy chain variable region; SB5 light chain variable region
- Internalization MDA-MB-231 (%) (MDA-MB-231 cells [3]): 15.63%

B6: 10D2: anti-CDCP1 murine monoclonal antibody (hybridoma); VH SEQ ID NO: 260, VL SEQ ID NO: 310 (antibody, V domains shown)
VH: EVQLQQSGPELKKPGETVKISCKASGYTFTDYSMHWVKQAPGKGLKWMGWINTETGQPTYADDFKGRFAFSLETSASSAYLQINNLKNEDTATYFCTRTFYYDYVGDYWGQGTTVTVSS
VL: DIVMTQSHKFMSTSVGDRVSITCKASQDVSTAVAWYRQKPGQSPKLLIYWASTRHTGVPDRLTGSGSGTDFALTINSVQAEDLALYYCQQHSSTPYTFGGGTKLEIK
modifications: 10D2 heavy chain variable region; 10D2 light chain variable region
- Internalization PC3 (%) 0.5 h (PC3 cells [4]; PC3, 0.5 h at 37° C.): 21.48%
- Internalization PC3 (%) 1 h (PC3 cells [4]; PC3, 1 h at 37° C.): 41.99%
- Internalization PC3 (%) 2 h (PC3 cells [4]; PC3, 2 h at 37° C.): 64.19%
- Internalization MDA-MB-231 (%) 0.5 h (MDA-MB-231 cells [5]; MDA-MB-231, 0.5 h at 37° C.): 46.38%
- Internalization MDA-MB-231 (%) 1 h (MDA-MB-231 cells [5]; MDA-MB-231, 1 h at 37° C.): 57.85%
- Internalization MDA-MB-231 (%) 2 h (MDA-MB-231 cells [5]; MDA-MB-231, 2 h at 37° C.): 70.77%
- effect on tumor cell migration (transwell, FIG. 4c) (MDA-MB-231 cells [6]): better capability to inhibit tumor cell migration than SEQ135
- effect on tumor cell growth (FIG. 4a) (MDA-MB-231 cells [7]): did not exhibit an effect on tumor cell growth
- effect on tumor cell growth (FIG. 4b) (PC-3 cells): did not exhibit an effect on tumor cell growth

B7: SB4: anti-CDCP1 antibody by single B cell technique; VH SEQ ID NO: 274, VL SEQ ID NO: 324 (antibody, V domains shown)
VH: QVQLQQSGAELVRPGTSVKISCKASGYTFTNYWLGWVKQRPGHGLEWIGDNYPGDNYRNFNEKFKGKATLTTDASSSTAYLQLSSLISEDSAVYFCTRSGGSRYYTMDYWGQGTSVTVSS
VL: DIVMTQAAFSNPVTLGTSASISCRSSRSLLHNNGITYLYWYLQKPGQSPQLLIYQMSNLASGVPDRFHSSGSGTDFTLSISRVEAEDVGVYYCAQNLDLPYTFGGGTKLEIK
modifications: SB4 heavy chain variable region; SB4 light chain variable region
- Internalization MDA-MB-231 (%) (MDA-MB-231 cells [3]): 83.16%
